Data on two molecules can be found in publication PMC7227406, “Protein Phosphatases Type 2C Group A Interact with and Regulate the Stability of ACC Synthase 7 in Arabidopsis” (Cells, 2020).

In this assay the target is T1, GST–ACS7 (Arabidopsis thaliana, UniProt Q9STR4 1-447).
T1 construct: ACS7, 1-aminocyclopropane-1-carboxylate synthase 7, Arabidopsis thaliana; Vector pDEST15; also called recombinant GST–ACS7; N-tagged GST–ACS7; source: E. coli BL21-CodonPlus (DE3)-RIL, purified (Glutathione-Sepharose 4B); not shown: GST, N-terminal, kept
T1 sequence (looked up): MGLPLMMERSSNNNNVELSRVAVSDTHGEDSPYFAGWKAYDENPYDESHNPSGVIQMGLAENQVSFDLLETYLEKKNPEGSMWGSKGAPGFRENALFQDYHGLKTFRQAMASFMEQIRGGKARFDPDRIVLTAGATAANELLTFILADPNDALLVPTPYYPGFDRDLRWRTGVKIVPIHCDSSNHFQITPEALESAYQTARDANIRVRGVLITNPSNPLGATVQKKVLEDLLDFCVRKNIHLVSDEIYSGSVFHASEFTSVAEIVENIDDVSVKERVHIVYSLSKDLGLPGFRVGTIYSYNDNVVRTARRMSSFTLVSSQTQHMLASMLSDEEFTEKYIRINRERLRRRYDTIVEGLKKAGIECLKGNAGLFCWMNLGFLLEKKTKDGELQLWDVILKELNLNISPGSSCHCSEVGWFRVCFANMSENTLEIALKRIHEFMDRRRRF
The assay is described as follows: pull-down; GST–ACS7 pre-coupled to Glutathione-Sepharose 4B, preincubated with 1 mg/mL BSA; His-tagged ABI1 or ABI2 added in EBC buffer (100 mM NaCl, 0.5% Nonidet P-40, 100 mM NaF, 200 μM sodium orthovanadate, 50 mM Tris-HCl pH 8.0), 1 h, room temperature; washes with NENT buffer at 100/200/300 mM NaCl; immunoblot with anti-GST and anti-His. To be noted: both partners purified. Background: A western blot detects proteins with antibodies after separation by electrophoresis.

B1: His–ABI1 (enzyme, Arabidopsis thaliana, UniProt P49597 1-434, looked up)
chain: MEEVSPAIAGPFRPFSETQMDFTGIRLGKGYCNNQYSNQDSENGDLMVSLPETSSCSVSGSHGSESRKVLISRINSPNLNMKESAAADIVVVDISAGDEINGSDITSEKKMISRTESRSLFEFKSVPLYGFTSICGRRPEMEDAVSTIPRFLQSSSGSMLDGRFDPQSAAHFFGVYDGHGGSQVANYCRERMHLALAEEIAKEKPMLCDGDTWLEKWKKALFNSFLRVDSEIESVAPETVGSTSVVAVVFPSHIFVANCGDSRAVLCRGKTALPLSVDHKPDREDEAARIEAAGGKVIQWNGARVFGVLAMSRSIGDRYLKPSIIPDPEVTAVKRVKEDDCLILASDGVWDVMTDEEACEMARKRILLWHKKNAVAGDASLLADERRKEGKDPAAMSAAEYLSKLAIQRGSKDNISVVVVDLKPRRKLKSKPLN
notes: ABI1, group A protein phosphatase type 2C, Arabidopsis thaliana; Vector pDEST17; also called His-tagged ABI1; source: E. coli BL21-CodonPlus (DE3)-RIL, purified (Ni-Sepharose 6 Fast Flow)
Take B1: the binding result is on record as “binds”.

B2: His–ABI2 (enzyme, Arabidopsis thaliana, UniProt O04719 1-423, looked up)
chain: MDEVSPAVAVPFRPFTDPHAGLRGYCNGESRVTLPESSCSGDGAMKDSSFEINTRQDSLTSSSSAMAGVDISAGDEINGSDEFDPRSMNQSEKKVLSRTESRSLFEFKCVPLYGVTSICGRRPEMEDSVSTIPRFLQVSSSSLLDGRVTNGFNPHLSAHFFGVYDGHGGSQVANYCRERMHLALTEEIVKEKPEFCDGDTWQEKWKKALFNSFMRVDSEIETVAHAPETVGSTSVVAVVFPTHIFVANCGDSRAVLCRGKTPLALSVDHKPDRDDEAARIEAAGGKVIRWNGARVFGVLAMSRSIGDRYLKPSVIPDPEVTSVRRVKEDDCLILASDGLWDVMTNEEVCDLARKRILLWHKKNAMAGEALLPAEKRGEGKDPAAMSAAEYLSKMALQKGSKDNISVVVVDLKGIRKFKSKSLN
notes: ABI2, group A protein phosphatase type 2C, Arabidopsis thaliana; Vector pDEST17; also called His-tagged ABI2; source: E. coli BL21-CodonPlus (DE3)-RIL, purified (Ni-Sepharose 6 Fast Flow)
For the molecule B2, the binding result is listed as “binds”.
